This test deals with T1, CD46 on human coloncarcinoma LS174T cells (human, UniProt P15529 35-392).
T1 construct: whole, on cells
T1 sequence (looked up): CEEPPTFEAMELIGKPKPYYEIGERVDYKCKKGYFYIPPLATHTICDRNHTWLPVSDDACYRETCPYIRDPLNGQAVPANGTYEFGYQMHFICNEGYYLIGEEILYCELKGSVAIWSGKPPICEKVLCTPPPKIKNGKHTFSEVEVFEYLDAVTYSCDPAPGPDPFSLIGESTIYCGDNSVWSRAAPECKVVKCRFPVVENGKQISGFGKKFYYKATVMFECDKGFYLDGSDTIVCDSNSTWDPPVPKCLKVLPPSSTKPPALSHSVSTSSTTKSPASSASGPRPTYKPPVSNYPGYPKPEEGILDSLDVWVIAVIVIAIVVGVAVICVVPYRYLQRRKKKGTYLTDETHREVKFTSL
The experiment in a line: FACS on LS174T cells preincubated with normal human serum; biotinylated antibody, streptavidin-PE; MFI. Here is the method: Binding (MFI, ordinate) was determined by FACS after incubation with streptavidin-conjugated phycoerythrin.

The values below come from patent US20090263864A1 (CRUCELL HOLLAND B V, published 2009).

B1: K53 IgG (antibody, V domains shown)
VH: QVQLVQSGAEVKKPGASVKVSCKASGYTFTSYGISWVRQAPGQGLEWMGWISAYNGNTNYAQKLQGRVTMTTDTSTSTAYMELRSLRSDDTAVYYCARGMMRGVFDYWGQGTLVTVST
VL: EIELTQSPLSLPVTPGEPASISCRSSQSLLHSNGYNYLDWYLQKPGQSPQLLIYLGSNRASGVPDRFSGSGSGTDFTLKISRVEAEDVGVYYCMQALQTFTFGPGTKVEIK
notes: also called clone K53; anti-CD46 clone K53
The term EC50 (read off the curve) denotes the midpoint of the concentration-response curve. As to B1, the “EC50 (read off the curve)” value was about 3 µg/mL.
